Literature values as cited in publication PMC10878502.

Key:
ASPP1 (Homo sapiens) = ASPP1 (Homo sapiens) (UniProt Q96KQ4)
ASPP2 (Homo sapiens) = ASPP2 (Homo sapiens) (UniProt Q13625)
[1] = molecular target: iASPP ANK-SH3 (Homo sapiens) (UniProt Q8WUF5)
[2] = molecular target: ASPP2 ANK-SH3 (Homo sapiens) (UniProt Q13625)
Sequence of ASPP2 ANK-SH3 (Homo sapiens) (Q13625 892-1128): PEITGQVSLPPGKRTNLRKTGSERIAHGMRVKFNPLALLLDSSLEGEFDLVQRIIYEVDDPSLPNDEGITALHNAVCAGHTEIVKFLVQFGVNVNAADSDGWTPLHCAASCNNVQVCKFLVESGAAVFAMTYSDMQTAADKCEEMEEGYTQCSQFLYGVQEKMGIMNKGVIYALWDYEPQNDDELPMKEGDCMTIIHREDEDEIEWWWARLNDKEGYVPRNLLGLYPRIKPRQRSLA

Sequence of ASPP1 (Homo sapiens) (Q96KQ4 whole entry): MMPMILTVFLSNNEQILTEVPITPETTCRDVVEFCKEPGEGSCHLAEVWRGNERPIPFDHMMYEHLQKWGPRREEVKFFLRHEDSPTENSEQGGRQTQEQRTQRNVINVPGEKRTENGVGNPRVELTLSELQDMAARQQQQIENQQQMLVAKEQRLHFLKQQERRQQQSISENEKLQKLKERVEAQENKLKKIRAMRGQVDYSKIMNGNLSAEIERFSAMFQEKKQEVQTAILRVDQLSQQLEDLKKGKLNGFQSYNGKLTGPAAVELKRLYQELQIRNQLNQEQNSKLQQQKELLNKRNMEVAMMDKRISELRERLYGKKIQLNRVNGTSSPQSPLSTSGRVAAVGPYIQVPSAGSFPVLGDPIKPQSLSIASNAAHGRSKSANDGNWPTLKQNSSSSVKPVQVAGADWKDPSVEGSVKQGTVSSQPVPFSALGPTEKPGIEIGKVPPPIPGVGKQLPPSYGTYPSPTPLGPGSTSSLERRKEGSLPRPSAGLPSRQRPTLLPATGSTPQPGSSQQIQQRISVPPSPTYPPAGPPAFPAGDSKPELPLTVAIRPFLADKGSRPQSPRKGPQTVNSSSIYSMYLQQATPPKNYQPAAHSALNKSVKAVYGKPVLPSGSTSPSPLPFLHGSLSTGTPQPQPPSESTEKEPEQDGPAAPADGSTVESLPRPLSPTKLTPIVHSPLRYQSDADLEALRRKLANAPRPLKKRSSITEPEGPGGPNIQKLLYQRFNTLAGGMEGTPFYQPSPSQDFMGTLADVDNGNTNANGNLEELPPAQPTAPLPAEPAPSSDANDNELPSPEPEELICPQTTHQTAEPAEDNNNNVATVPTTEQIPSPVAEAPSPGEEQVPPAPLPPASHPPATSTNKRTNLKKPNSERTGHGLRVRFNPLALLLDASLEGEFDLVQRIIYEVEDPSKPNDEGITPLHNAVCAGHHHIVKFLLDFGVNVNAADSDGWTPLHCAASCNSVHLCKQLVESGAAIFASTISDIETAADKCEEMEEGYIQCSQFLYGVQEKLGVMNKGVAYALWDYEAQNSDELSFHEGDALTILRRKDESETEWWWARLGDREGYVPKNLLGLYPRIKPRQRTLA
Sequence of iASPP ANK-SH3 (Homo sapiens) (Q8WUF5 608-828): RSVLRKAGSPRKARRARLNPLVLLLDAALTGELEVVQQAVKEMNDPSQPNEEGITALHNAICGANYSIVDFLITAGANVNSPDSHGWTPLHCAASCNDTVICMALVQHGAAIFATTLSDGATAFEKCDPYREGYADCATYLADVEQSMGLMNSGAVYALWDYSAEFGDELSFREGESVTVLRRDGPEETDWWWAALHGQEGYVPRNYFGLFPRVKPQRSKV
Sequence of ASPP2 (Homo sapiens) (Q13625 whole entry): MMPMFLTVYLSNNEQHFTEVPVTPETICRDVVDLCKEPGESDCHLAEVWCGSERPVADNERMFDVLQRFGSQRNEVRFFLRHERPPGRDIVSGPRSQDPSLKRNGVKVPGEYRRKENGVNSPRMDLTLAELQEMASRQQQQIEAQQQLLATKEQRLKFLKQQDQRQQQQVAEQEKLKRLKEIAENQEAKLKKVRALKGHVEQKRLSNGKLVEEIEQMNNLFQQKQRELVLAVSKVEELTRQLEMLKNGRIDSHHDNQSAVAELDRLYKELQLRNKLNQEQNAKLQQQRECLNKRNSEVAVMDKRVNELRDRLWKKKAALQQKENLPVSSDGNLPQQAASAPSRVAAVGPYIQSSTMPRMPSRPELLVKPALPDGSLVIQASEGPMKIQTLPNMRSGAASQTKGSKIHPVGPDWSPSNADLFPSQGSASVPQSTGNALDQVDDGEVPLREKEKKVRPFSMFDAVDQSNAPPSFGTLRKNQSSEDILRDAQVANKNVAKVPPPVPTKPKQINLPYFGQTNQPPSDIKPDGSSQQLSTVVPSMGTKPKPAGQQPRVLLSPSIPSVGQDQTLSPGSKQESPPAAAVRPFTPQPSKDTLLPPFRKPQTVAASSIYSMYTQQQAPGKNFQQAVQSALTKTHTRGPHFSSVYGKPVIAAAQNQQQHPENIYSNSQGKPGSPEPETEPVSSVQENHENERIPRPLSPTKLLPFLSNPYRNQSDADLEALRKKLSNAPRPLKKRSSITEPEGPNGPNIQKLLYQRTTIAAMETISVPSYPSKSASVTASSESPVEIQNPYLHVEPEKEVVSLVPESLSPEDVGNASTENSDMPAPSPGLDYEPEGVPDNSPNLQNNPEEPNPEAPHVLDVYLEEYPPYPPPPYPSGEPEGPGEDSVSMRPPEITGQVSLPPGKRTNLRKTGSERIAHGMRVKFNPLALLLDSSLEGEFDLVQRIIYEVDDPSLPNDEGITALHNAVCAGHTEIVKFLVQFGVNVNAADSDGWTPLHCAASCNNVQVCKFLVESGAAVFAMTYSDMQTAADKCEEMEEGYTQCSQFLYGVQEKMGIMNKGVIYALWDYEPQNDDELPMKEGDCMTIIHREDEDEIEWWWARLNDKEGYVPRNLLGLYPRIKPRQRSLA

## p53 (from UniProt P04637)
ASPP1 (Homo sapiens)
  Kd: 500 nM
ASPP2 (Homo sapiens)
  Kd: 5000 nM

## p53 DBD (from UniProt P04637)
[1]
  Kd: 23.3 nM
[2]
  Kd: 26.4 nM
